{"source": "the DeepSol protein solubility set"}
{"assay": "soluble on expression in E. coli; label from the status in PepcDB or PDB records"}
{"sequence": "MQRKGDTPATLDLFADQTPQPRRDEQIGPGSWLFSGFALPAMPTLLLALEQTLGHSPFRHMLTPGGLSMSAALSSCGPLGWITDRHGYRYSDVDPQTGQPWPAMPDAFMQLAQSAALAAGYRGFVPDACLINRYIPGAKMSLHQDKDEHDHRWPVVSVSLGIPAIFQFGGMQRSDKTRRISLFHGDVVVWGGEDRLRFHGILPIKQAEHPLLGEQRINLTFRKAGRDSLEHHHHHH", "soluble on expression in E. coli": "soluble"}
{"sequence": "MQRKLKVTSLEPGTVVITEQAVDTCFKAEFEQIVLGKRVIRKTDLNKKLVQELLLCSAELSEFTTVVGNTMCTLDFYEGQGRLDGALCSYTEKDKQAYLEAAYAAGVRNIEMESSVFAAMCSACGLQAAVVCVTLLNRLEGDQISSPRNVLSEYQQRPQRLVSYFIKKKLSKA", "soluble on expression in E. coli": "not soluble"}
{"sequence": "MQRTLNVGVILCESFISNAQNPVNSYIKIYENVRMFEFAIKLLQESRINFQKILLYVLEEQIPLVEKVVAKYENCWVFRSKHNEVEDIYEAKGFIEDKYKIGLKSSKNQASSYYDNCCFVVLEACRPLTSKKVVKNVYEKAMIDGAAVAVLPFERQLVCGDNTKAVRQLKDKGNMNYWRQSSTWELQFPQAYTLNKLNQYHKNLFMKARNMLDLMNISAKNPLSIVDGSAYSFRVVTSLDFEILLGILRNG", "soluble on expression in E. coli": "not soluble"}
{"sequence": "MQRVTITLDDDLLETLDSLSQRRGYNNRSEAIRDILRSALAQEATQQHGTQGFAVLSYVYEHEKRDLASRIVSTQHHHHDLSVATLHVHINHDDCLEIAVLKGDMGDVQHFADDVIAQRGVRHGHLQCLPKED", "soluble on expression in E. coli": "soluble"}
{"sequence": "MQSAIVLGGGMIGVSAALHLRQRGWTVTLVDRREPGRETSYGNAGMIQAEAVRPYPMPRDLASLLKIATGRTNDVRYSLSSLHLHIEPLLRYWWHSAPKRHREAIDAWARLIAYATAEHDILIREAHADNLIRRAGYRALYRDAAALDLSIKAAEEDQHEFGVNFRVLSGSELAKAEPVLRDDLPGAIHWLDTWTVSDPGALVTAYAELFERLGGRIVLGDAQSLQQTAAGWSVDTDQGRIDAATAVVTLGPWSPDLLYKFGYRIPLVRKRGYHMHYSGGASLDLPLIDKAGGYAMGPMAKGIRITTGAELTSPDALATPVQLASAEASARELIDLGKRVEPDPWFGTRPCTPDMLPVLGPAPLHPGLWMNFGHGHQGFTLGPATGRLLAEMMSGETPAIDPTPYRPERFLEHHHHHH", "soluble on expression in E. coli": "soluble"}
{"sequence": "MQSCLRLAASLLSAALLCLPAPGAAQTASPAKKELLKFNWGAPTADYYALYVAKDQKLFEEVGLEPNFYFFPSGAPLLAGLKSKSLDVITTGLATVFALGQNVPLKLIYWELDHAAAEGLVVDPAAGIKSYKDIAKAKAIGAPSGTCAQVSLVLMAKELNLKYSNLNIINIAPPLYGNAFKSKSIQAAVAWSPYSSILNADQLPVVNWASDYTPDQGVCPGLTGVRTEFMQQHPDIGLKLVQVQAKAMDMIRKDPELGIGVLMKYLSVSREVAKHIYDREFSRIPTYAQQIDPASPYSLAAKDAGLARKLLIASQALAEVGTIPAPLTPQAIAEAIDPSAIQRYMKGERK", "soluble on expression in E. coli": "not soluble"}
{"sequence": "MQSPEKIDPTWEDSVIDSFISFVRSYDGDFTCIYKLADTVSDEYSLQKIIDFLSSTPQGKQAFQKRPQLGVVDLPKLHQLPTDTLGYVYADQMLQNNLQPLQSHEIDNDYQFFKTHITETHDLWHIVTGADTSILGEIQLEAFYVSQLYASRFWLALLAKNLLKAVIYDIELSTPYMDAISTGWVMAKQAKPLFGLEWNLLWEKPLADVRTSLNIILPVNLEHHHHHH", "soluble on expression in E. coli": "soluble"}
{"sequence": "MQSSKVVLLEPRTYSEAQGIADHLKGRRAVVINLQRMSTDQAVRIVDFLSGTVYAIGGDIQKIGPKTFMCTPENVDIVGAISELFGEEEETNIKRWLEHHHHHH", "soluble on expression in E. coli": "not soluble"}
{"sequence": "MQTSAQKVIQDLTNRVQAEKEELEQLERERDLWKYNAQMNDKEALRGNERKKNIMKKGGPLCYFCNKNHVPSLCRTYPDGISRQKSLENQGKCIKCLKIGHQNGDNFCEKHHIVCRTCQQSHVKAVCPILYPKKDTPPKILRARRRSLIRAQKKKDFQEPENKHEQLTSTKAPCQENWSDF", "soluble on expression in E. coli": "not soluble"}
{"sequence": "MQTSDSIVIIPTYNERENIENIIRAVFGLEKTFHILIIEDGSPDGTAAIVKTLQQEFPDRLFMIERKGKLGLGTAYITGFKWALEHSYEYIFEMDADFSHNPNDLPRLYEACAVQGGDVAIGSRYVSGVNVVNWPMGRVLMSYFASKYVRIVTGLPIHDTTAGFKCYRRQVLETIDLDHIRFKGYAFQIEMKFTAYKCGFKIIEVPVIFINRELGTSKMNSSIFGEAVFGVIKLKVNSWFHTFPQKTKMNLEHHHHHH", "soluble on expression in E. coli": "not soluble"}
{"sequence": "MQVIKTNETFDSLDKSKLERMLDIKEAHREGHLTLEEAKERMKKEVGSISPEEFAAAEQLFKERDQDECQNEDVRTMLQLFEGLINPIRPDLPFGHPIDAYLRENDKAKELLDQADALLERTFIPNPWIELMETLMGYKLHFARKQNQLYSTLEQKGFDRPSTTMWTYDDHIRDEMNKAMSLLREKDYDSFPAAYKEMAIVLRDLMEKEELILYPTSLKLISDKEFEEMKHGDREIGFFLIDMPELDAPAKQSKEAHGQSFMAELGALLAKHGMGTGGQDDKAILDVAEGKLTLEQINLLFRHLPVDISFVDENELVCFYTDTKHRVFPRSKGVIGREVRNCHPPKSVHIVEEIIDKFRRGEQDRAEFWINKPGVFIYIVYVAIRDADGRFRGVMEMMQDCTRIRSLEGSRTLLTWDEEQSPAQGSKESESDTAGEDGIRPDTKLKSLLQRYPQLMDDLPTISSKFTLLRSPMAKVILPVATIKMMSERADIPSDMLIGKLESLIASYNKPDRSEEK", "soluble on expression in E. coli": "not soluble"}
{"sequence": "MQWVKQLNVVFCTMLFSFSSYANLSDFKVATWNLQGSSAVNESKWNINVRQLLSGEQGADILMVQEAGSLPSSAVRTSRVIQHGGTPIEEYTWNLGTRSRPNMVYIYYSRLDVGANRVNLAIVSRRQADEAFIVHSDSSVLQSRPAVGIRIGTDVFFTVHALATGGSDAVSLIRNIFTTFTSSPSSPERRGYSWMVVGDFNRAPVNLEAALRQEPAVSENTIIIAPTEPTHRSGNILDYAILHDAHLPRREQARERIGASLMLNQLRSQITSDHFPVSFVHDR", "soluble on expression in E. coli": "soluble"}
{"sequence": "MQYINESATVSASNNVEKLRKQGLKIYNFGIGEPDFTTPEGIIDYAFEMAKQGKTHYTPSAGIMELREKIASKLKTRNRIDANAENVLVTPTKFGINLAMMVILNPGDEVIIPDPYYVSYPDIVKLAGGKPVPVRTTDDYDIDLDEMRKFVTPRTRAIILNNPNNPTGKVLSEKEIRDLVDFALENDIYIVSDEIYEDLIYEGSLYSPASMGKEAFEHTITLNGFSKGYAMTGWRIGYFVATEEIVEAANIIQQQTITCASSISQYAALRALDDNESPARMRSEFRKRRDLAYGILSESTDMKVHKPEGAFYMFPGYSKDIPSEKIAEMLLNQEHVVVTPGSAFGDRGRHHFRISFATSEDIIKEGLERLVKFMHTL", "soluble on expression in E. coli": "soluble"}
{"sequence": "MQYTLKQISEHLNAKVINEPSGEVIITGLTYAEQAKENDLTLIDKQEHIKLWQNSKATAAIVSKKISKELAQVNDKPLIVVNNADLAMAKILELFSVPYPEQNGIHEKAIIDPTAKIGKNVSIGPSAYIGKNVEIGDNTIIYANVCIYNDAKVGTNCIIWPSVIIRDRTIIGHFCRLCSNCSIGSDGFGYRPSEDGRTIVRIPHIGNVVIGSFVDIGSNTCINNAKYGSTIIGDYTKIDNLVQIGHNVIIGKGCMICGQAGISGSVTIGDGVIIAGNAGIKDHTNIGSDARIGGKAGVMWDVPAGESHMGYPAYKDSELAKQWIAIRKLPETMKKLKAIAKSLNIDL", "soluble on expression in E. coli": "not soluble"}
{"sequence": "MRARSDAGGQSVKSRTSNRSRSSRRSRVRSSISALVDNPQARPRELPVLCGWPVVRVEPVCEFVPEPVCGQAEVLGEPAAAHRVTSARRSPSTTVCSRSQKASAVVISSVSSVARVRRASVSSVDATTA", "soluble on expression in E. coli": "not soluble"}
{"sequence": "MRATAIKIFSLSSALALLLHGCLSINLKQMLPEIRTYDLNASSFEITQCAKPLTEVRLISILSADLFNTKEIVFKAKDGQITHGKHQKWIDLPRNMLKTMFMQEAQKACLGVALPPYGAGAPTYAVRFTILSFSLLEKENSTYRAEFALGYDISVKGDSHSGVIIKHENISSLENKTTKTSKNGNQDFQESAIQSLQHVSVQAIQEAVSLIKKAIEAQSVSPLKK", "soluble on expression in E. coli": "not soluble"}
